Source: paper PMC8655068, “Quantitative proteomic screen identifies annexin A2 as a host target for Salmonella pathogenicity island-2 effectors SopD2 and PipB2” (Scientific Reports, 2021)

Target: T1, recombinant human His6-tagged annexin A2 (human, UniProt P07355 1-339)
T1 construct: annexin A2, human, recombinant; No catalogue number is printed; also called His6-AnxA2; His6-tagged AnxA2; source: bought: Novus Biologicals
Assay: pull-down; about 20 µg concentrated culture supernatant (SPI-2 inducing conditions) mixed with 5 µg His6-annexin A2 overnight at 4 °C; Ni-Sepharose beads 2 h at room temperature; four washes in TBS-T (20 mM Tris-HCl, 150 mM NaCl, 0.75% Triton X-100); Western blot with anti-HA and anti-AnxA2; densitometry of 3 blots, with AnxA2 over without AnxA2
Settings: one partner purified

T1 sequence (P07355 whole entry): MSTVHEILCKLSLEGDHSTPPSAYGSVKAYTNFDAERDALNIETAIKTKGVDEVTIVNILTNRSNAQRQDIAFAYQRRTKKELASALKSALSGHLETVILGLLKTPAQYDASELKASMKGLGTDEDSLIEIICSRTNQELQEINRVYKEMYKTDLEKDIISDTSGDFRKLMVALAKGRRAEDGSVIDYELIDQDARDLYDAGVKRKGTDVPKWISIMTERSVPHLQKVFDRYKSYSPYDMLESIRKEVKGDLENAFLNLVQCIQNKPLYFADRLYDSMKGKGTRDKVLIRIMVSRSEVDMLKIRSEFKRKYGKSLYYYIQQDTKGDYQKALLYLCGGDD

B1: SopD2-2HA (natural protein)
chain: MPVTLSFGNRHNYEINHSRLARLMSPDKEEALYMGVWDRFKDCFRTHKKQEVLEVLYTLIHGCERENQAELNVDITGMEKIHAFTQLKEYANPSQQDRFVMRFDMNQTQVLFEIDGKVIDKCNLHRLLNVSENCIFKVMEEDEEELFLKICIKYGEKISRYPELLEGFANKLKDAVNEDDDVKDEVYKLMRSGEDRKMECVEWNGTLTEEEKNKLRCLQMGSFNITTQFFKIGYWELEGEVLFDMVHPTLSYLLQAYKPSLSSDLIETNTMLFSDVLNKDYDDYQNNKREIDAILRRIYRSHNNTLFISEKSSCRNMLI
notes: SopD2, T3SS2-secreted effector of Salmonella enterica serovar Typhimurium SL1344, under its native promoter in pACYC184; also called pSopD2-2HA; source: S. Typhimurium SL1344 T3SS2+ ΔsopD2 carrying pSopD2-2HA: translocated into infected HeLa cells, in lysate; secreted under SPI-2 inducing conditions (LPM pH 5.8), concentrated culture supernatant; not shown: 2xHA (tandem HA), C-terminal, kept
fold change of effector pulled down with AnxA2 over without AnxA2: 12.3 fold
